According to US20190099470:

Biological target: T1, Mouse MAVS, endogenous, on mitochondria of wild-type MEFs and BMDCs (UniProt Q8VCF0)
T1 sequence: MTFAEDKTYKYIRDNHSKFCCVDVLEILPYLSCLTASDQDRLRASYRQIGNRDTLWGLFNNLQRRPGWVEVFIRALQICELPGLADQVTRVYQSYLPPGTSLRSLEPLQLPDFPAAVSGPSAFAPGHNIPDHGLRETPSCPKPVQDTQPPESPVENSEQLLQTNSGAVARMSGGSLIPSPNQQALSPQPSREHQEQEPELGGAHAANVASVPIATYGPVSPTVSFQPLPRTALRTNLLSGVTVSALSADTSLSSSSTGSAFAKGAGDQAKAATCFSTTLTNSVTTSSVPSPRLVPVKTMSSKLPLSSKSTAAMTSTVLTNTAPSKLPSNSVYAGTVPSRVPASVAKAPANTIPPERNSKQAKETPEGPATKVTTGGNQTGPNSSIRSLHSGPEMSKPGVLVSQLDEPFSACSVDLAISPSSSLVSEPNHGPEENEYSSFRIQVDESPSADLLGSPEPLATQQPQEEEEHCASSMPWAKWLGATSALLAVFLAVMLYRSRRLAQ

“Coxsackievirus B3 (CVB3) 3C^pro protease” was tested, and the “MAVS cleavage in CVB3-infected MEFs (immunoblotting), 3 h post-infection” value was “the CVB3 3C^pro protease had produced only a small amount of cleaved MAVS” and the “MAVS cleavage in CVB3-infected MEFs (immunoblotting), 24 h post-infection” value was “CVB3 3C^pro had significantly cleaved MAVS”.
